# Entries after “also recorded” stand apart in the source; their conditions may differ.
# What was measured:
# [1] = biological target: T1, human recombinant choline acetyltransferase (rChAT) (Homo sapiens, UniProt P28329); assay: Fluorometric in vitro ChAT activity assay (human rChAT, CPM read-out); assay type: biochemical; conditions: for direction of effect on ChAT activity at high concentrations: 0 to 3,800 ng/mL (0–833.3 nM), 1:2 dilutions, two independent experiments, Figure 2C; for difference in slopes of ChAT rate vs gelatin control: 6.4 ng/mL Aβ40 or 0.16 ng/mL Aβ42 (F = 21, p < 0.0001), linear regression; for effect on increases in ChAT activity at the higher Aβ concentration points: 160 and 800 ng/mL Aβ40, 100 ng/mL Aβ42, activity still higher than baseline; for concentration range giving the highest level of ChAT activation in the mixture: Aβ40:Aβ42 10:1 mixture, Figure 5C, with or without gelatin; for effect on ChAT activity at physiological concentrations: CSF concentrations ∼4–6.4 ng/mL Aβ40, ∼0.4–0.8 ng/mL Aβ42, Figures 2A,B
# T1 construct: made in house; host or cells: E. coli BL21 Rosetta2
# T1 sequence (P28329 1-630 isoform P28329-3): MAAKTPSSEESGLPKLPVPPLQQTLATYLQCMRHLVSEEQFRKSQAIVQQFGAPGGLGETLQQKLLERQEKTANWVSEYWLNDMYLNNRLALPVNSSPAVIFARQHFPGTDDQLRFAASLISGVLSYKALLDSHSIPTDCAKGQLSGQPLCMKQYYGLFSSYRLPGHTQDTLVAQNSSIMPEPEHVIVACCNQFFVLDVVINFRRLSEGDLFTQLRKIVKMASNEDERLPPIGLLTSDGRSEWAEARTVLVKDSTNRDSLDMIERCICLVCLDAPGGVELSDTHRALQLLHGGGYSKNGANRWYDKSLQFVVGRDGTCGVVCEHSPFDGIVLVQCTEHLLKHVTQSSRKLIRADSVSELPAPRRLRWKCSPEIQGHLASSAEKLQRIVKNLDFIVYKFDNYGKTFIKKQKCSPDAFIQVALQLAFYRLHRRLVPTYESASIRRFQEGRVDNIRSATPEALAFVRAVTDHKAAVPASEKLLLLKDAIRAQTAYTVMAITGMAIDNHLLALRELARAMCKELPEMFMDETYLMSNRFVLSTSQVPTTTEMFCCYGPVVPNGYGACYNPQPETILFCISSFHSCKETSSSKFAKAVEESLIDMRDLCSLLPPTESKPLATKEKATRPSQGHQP
# Method: Recombinant ChAT was purified as described previously ([Kumar et al., 2016a], [2017]). Briefly, DYT media was inoculated with an O/N culture of E. coli BL21 Rosetta2 transformed with pProExHTa-ChAT (a gift from Dr. Brian Shilton, Department of Biochemistry, University of Western Ontario, London, ON, Canada). The bacteria were grown in shaking incubator at 37°C with 200 rpm until the optical density at 600 nm reached 0.5. After which, 0.5 mM IPTG was added and His6-ChAT was expressed for approximately 16 h at 18°C. Next, the cells were harvested and His6-ChAT was purified with “Ni-NTA fast start Kit” (Qiagen) following the manufacturer’s instructions. The elution buffer was exchanged to storage buffer [10 mM Tris pH 7.4, 500 mM NaCl, 10% (v/v) glycerol] using 30 kDa molecular weight cutoff Amicon Ultra concentrators (Merck Millipore). The purity and molecular weight of the protein were determined using SDS-PAGE electrophoresis. The total protein concentration was determined using DC Protein Assay (Bio-Rad). The purified protein was aliquoted and stored at −80°C.
# ChAT activity was measured with our newly developed robust in-house fluorometric assay, using human rChAT protein. […] The reagents, choline chloride (C7017), acetyl coenzyme-A (ACoA, A2181), 7-diethylamino-3-(4-maleimidophenyl)-4-methylcoumarin (CPM) (C1484), thioflavin-T (ThT; T3516), and gelatin (G7041) were purchased from Sigma-Aldrich (St. Louis, MO, United States).
# Then, 50 μL of a cocktail-A [dilution buffer containing 10 μM ACoA (final concentration) and 15 μM CPM (final concentration)] was added to each well. Immediately after adding the cocktail-A, the changes in fluorescence were monitored kinetically at 479 nm emission wavelength after exciting at 390 nm wavelength, at 1- to 2-min intervals for 15–20 min using a microplate spectrophotometer reader (Infinite M1000, Tecan).
# Each Aβ peptide dilution was run in triplicates. On each 96-wells plate, several enzyme wells without Aβ were also included as positive controls and for estimating the activation level by Aβ peptides. Negative controls were wells without enzyme, but with all the other above-mentioned reagents. The kinetic rate of enzyme activity (as ΔRFU/min slope data) was calculated and processed using the GraphPad Prism 7 analysis software. The actual rate values as well as statistical analysis values (P-values) of ChAT activity at different Aβ concentrations or alone were calculated after fitting the curve with the linear regression function in the GraphPad Prism 7. […]
# [2] = Thioflavin-T (ThT) fluorescence Aβ fibrillization assay; assay type: physicochemical; conditions: 800 ng/mL Aβ40, 100 ng/mL Aβ42; ThT 1 μM, pH 7.4, 37°C overnight, ex 450/em 485 nm, ChAT, choline and ACoA as in activity assay; method: quadruplicate, legend: mean ± SEM of three readings
# Method: The ThT fluorescence assay was used to ensure that the Aβ peptides remained soluble during the aforementioned experimental setups. The ThT fluorescence assay was performed in 96-well black plates with a transparent bottom, as described before ([Kumar et al., 2016b]). […] The concentration of ChAT, choline, and ACoA were as used in the aforementioned experiments. To each well, 100 μL/well of a 1 μM ThT solution was added, the plate was then carefully sealed and the changes in fluorescence were monitored from the bottom of the wells, at an emission and excitation wavelengths of 485 nm and 450 nm, respectively, at 15-min intervals at 37°C for an overnight duration, using a microplate spectrophotometer reader (Infinite M1000, Tecan). Each Aβ peptide concentration was run in quadruplicate. Several wells with Aβ alone were also included as control, and wells without ThT were used as negative controls.
# [3] = tested on: cultured cholinergic neurons; conditions: high nanomolar concentration; ref Pedersen et al., 1996; Hoshi et al., 1997; Kar et al., 1998; Nunes-Tavares et al., 2012; cited from earlier work
# Description: The functional relationship between Aβ and the cholinergic system, especially ChAT, is quite complex and still need further exploration to gain a better understanding of Aβ native function and role in AD pathology.
Substance,direction of effect on ChAT activity at high concentrations [1],"rate of ChAT activity in the presence of Aβ40 ([1]; 6.4 ng/mL Aβ40, rChAT 0.146 μg/mL, 150 μM choline chloride, 10 μM ACoA, 15 μM CPM, 30 min room temperature, pH 7.4, no gelatin, mean ± SD of ≥2 readings, control (ChAT alone) 26.06 ± 1.07, F = 33.21, p < 0.0001)","difference in elevations or intercepts of ChAT rate vs gelatin control ([1]; 1 mg/mL gelatin, 6.4 ng/mL Aβ40, F = 9.2, p < 0.004)",difference in slopes of ChAT rate vs gelatin control ([1]; 1 mg/mL gelatin),effect on increases in ChAT activity at the higher Aβ concentration points [1],concentration range giving the highest level of ChAT activation in the mixture [1] [ng/mL],effect on ChAT activity at physiological concentrations ([1]; no gelatin),"concentration at which the increase in ChAT activity reaches a plateau ([1]; no gelatin, dilution series 0–800 ng/mL Aβ40, 0–100 ng/mL Aβ42) [ng/mL]",overall effect on ChAT across experiments ([1]; some experiments vs others),difference in ThT fluorescence intensity vs control wells (no Aβ) [2],"rate of ChAT activity in the presence of Aβ42 ([1]; 0.16 ng/mL Aβ42, rChAT 0.146 μg/mL, 150 μM choline chloride, 10 μM ACoA, 15 μM CPM, 30 min room temperature, pH 7.4, no gelatin, mean ± SD of ≥2 readings, control (ChAT alone) 53.8 ± 1.11, F = 98.5, p < 0.0001)",reduction in ACh synthesis [3],"effect of gelatin on ChAT activity ([1]; gelatin 0 to 4 mg/mL, mean ± SD of four readings)","change in ChAT activity by gelatin ([1]; gelatin 0.5 to 4 mg/mL, Figure 4A, mean ± SD of four readings)"
"Aβ40: amyloid-β peptide, recombinant, purchased from rPeptide (Cat no. A-1153-1)",inhibition of ChAT rather than activation,36.5 ± 1.48 ΔRFU/min,significant,not statistically significant,started to decline,1.3 to 6.4,able to increase the activity of ChAT at physiological concentrations,~32,"inhibited ChAT in some experiments, while in others it enhanced its activity",no significant differences in the ThT fluorescence intensity,–,–,–,–
"Aβ42: amyloid-β peptide, recombinant, purchased from rPeptide (Cat no. A-1166-1)",activation of ChAT,–,–,statistically highly significant,started to decline,0.12 to 0.64,able to increase the activity of ChAT at physiological concentrations,–,–,no significant differences in the ThT fluorescence intensity,71.6 ± 1.41 ΔRFU/min,40–50%,–,–
gelatin [reference compound],–,–,–,–,–,–,–,–,–,–,–,–,slight increase in the rate of ChAT activity within the 0.5–2 mg/mL gelatin concentration range; also recorded: no significant effect on ChAT activity,−5% to +9
